These results are taken from publication PMC5520923.

The target in this experiment is Atg16 (human (endogenous in HCT116 and H1299)) (UniProt Q676U5). In words: co-IP; lysates of HCT116/Shnon and HCT116/ShASPP1 cells (also H1299 with ASPP1 knock-down, Supplementary Figure 3B) immunoprecipitated with anti-Atg16 antibody; co-precipitated proteins detected by western blot.
Chain of UniProt Q676U5 (Q676U5 whole entry): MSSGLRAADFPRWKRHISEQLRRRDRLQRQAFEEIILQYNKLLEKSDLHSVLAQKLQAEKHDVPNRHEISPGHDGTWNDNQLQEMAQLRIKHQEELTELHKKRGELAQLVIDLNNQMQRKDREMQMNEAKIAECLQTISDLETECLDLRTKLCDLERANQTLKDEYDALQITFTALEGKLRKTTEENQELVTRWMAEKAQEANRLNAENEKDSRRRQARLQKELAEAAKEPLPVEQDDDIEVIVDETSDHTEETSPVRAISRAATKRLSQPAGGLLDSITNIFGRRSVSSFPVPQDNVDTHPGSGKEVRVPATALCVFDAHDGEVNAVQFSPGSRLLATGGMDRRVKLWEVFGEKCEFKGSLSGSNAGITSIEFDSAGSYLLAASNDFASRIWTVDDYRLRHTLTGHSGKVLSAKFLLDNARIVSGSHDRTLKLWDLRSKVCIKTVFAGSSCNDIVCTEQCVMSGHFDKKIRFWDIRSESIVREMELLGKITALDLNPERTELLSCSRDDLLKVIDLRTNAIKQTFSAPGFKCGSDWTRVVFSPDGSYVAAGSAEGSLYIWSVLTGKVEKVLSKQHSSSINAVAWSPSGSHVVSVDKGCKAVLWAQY

As to “Atg5–Atg12 conjugate (from UniProt Q9H1Y0 1-275; O94817 1-140) (complex)”, the fold increase of Atg5–Atg12 in the Atg16 immunoprecipitate, ASPP1 knock-down against control cells (H1299) came out at 2 fold and the fold increase of Atg5–Atg12 in the Atg16 immunoprecipitate, ASPP1 knock-down against control cells (HCT116) is 2 fold.
